Assay results from patent US20240279288A1, “APPLICATION OF PLANT JAZ PROTEINS AND DERIVED POLYPEPTIDES IN PREVENTION AND TREATMENT OF HUMAN AND ANIMAL TUMORS” (ANYANG INSTITUTE OF SINO-COTTON INDUSTRY INNOVATION, priority 2021, published 2024).

Biological target: T1, NMYC (Homo sapiens, UniProt P04198)
T1 construct: with the full length of c-Myc and NMYC, respectively; expressed in transfected cells; host or cells: yeast Y2HGold
T1 sequence (P04198 1-464): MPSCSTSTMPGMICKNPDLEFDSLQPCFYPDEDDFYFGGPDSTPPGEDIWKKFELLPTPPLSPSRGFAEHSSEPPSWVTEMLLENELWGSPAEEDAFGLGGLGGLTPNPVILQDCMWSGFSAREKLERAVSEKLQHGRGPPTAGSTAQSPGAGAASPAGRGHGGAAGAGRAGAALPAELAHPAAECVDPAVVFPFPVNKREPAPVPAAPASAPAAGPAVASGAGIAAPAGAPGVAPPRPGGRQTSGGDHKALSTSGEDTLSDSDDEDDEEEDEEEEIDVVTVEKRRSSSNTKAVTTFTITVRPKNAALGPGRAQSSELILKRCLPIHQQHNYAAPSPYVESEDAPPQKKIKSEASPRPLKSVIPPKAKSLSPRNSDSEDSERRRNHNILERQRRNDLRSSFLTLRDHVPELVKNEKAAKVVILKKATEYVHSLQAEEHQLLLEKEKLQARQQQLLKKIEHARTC
Assay: Yeast two hybrid with NMYC
Format: binding
Excerpt: […]

B1: GhJAZ1: cotton JAZ1 protein, gene number Gh_A05G0260, sequence SEQ ID No. 4; prokaryotically expressed with His tag, about 30 KD (protein)
chain: MSSCSESTAMKPARSPEKPSFAQTCNLLSQYLKEKGSFGDLSLGMTCNVEANGTPVVPPPTMNLFPLNDKSDDVCGRNGGNPKNLTSMDLFPQQAGLASKDDSPNKLEPQTAPMTIFYGGQVIVFNDFPANKAKEIMLLASNSSSQSNNSFNPIPFTSSIARSPIESSIGVPPTSKPVHPAQRAVPGDLPIARRASLHRFLEKRKDRITAKAPYQINNSAAAPSLSGDNKSWLGLAAQSP
modifications: His tag
notes: prokaryotically expressed with His tag, about 30 KD
  interaction with NMYC: interacted
